# Laboratory results: article PMC6698733
# T1: Dhr1 isolated C-terminal domain (CTD) (Saccharomyces cerevisiae, UniProt Q04217 1176-1267)
# T1 sequence: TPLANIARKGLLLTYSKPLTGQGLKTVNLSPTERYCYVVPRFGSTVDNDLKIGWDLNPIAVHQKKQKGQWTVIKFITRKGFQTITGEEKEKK
# Target: T1, Dhr1 isolated C-terminal domain (CTD)
# Assay: not stated
row,Binder,binding result
1,AAAAAAAAAAAAAAA (ssRNA) [poly(A)15],no binding
2,UUUUUUUUUUUUUUU (ssRNA) [poly(U)15],no binding
